This note sets out measurements from US12104181B2, “Compositions and methods for treating viral infections targeting TRIM7” (THE BOARD OF REGENTS OF THE UNIVERSITY OF TEXAS SYSTEM, priority 2021, dated 2024).

The assay relates to coxsackievirus B3 (CVB3-GFP). In kind it is cell-based. The following applies: HeLa cells, replicate R1; for Percent Infected R1: GFP-positive cells within RFP-positive gate.

B1: RNF170: human RING type E3 ligase expressed from lentiviral vector (protein, UniProt Q96K19 1-258, looked up)
E3 ubiquitin-protein ligase …: MAKYQGEVQSLKLDDDSVIEGVSDQVLVAVVVSFALIATLVYALFRNVHQNIHPENQELVRVLREQLQTEQDAPAATRQQFYTDMYCPICLHQASFPVETNCGHLFCGACIIAYWRYGSWLGAISCPICRQTVTLLLTVFGEDDQSQDVLRLHQDINDYNRRFSGQPRSIMERIMDLPTLLRHAFREMFSVGGLFWMFRIRIILCLMGAFFYLISPLDFVPEALFGILGFLDDFFVIFLLLIYISIMYREVITQRLTR
modifications: lentiviral expression
notes: human RING type E3 ligase expressed from lentiviral vector
For the molecule B1, the “Percent Infected R1” value turned out to be 97.3% and the “Z score R1” value is 0.11.

B2: TRIM49: human RING type E3 ligase expressed from lentiviral vector (protein, UniProt P0CI25 1-452, looked up)
Tripartite motif-containing …: MNSGILQVFQGELICPLCMNYFIDPVTIDCGHSFCRPCFYLNWQDIPFLVQCSECTKSTEQINLKTNIHLKKMASLARKVSLWLFLSSEEQMCGTHRETKKIFCEVDRSLLCLLCSSSQEHRYHRHRPIEWAAEEHREKLLQKMQSLWEKACENHRNLNVETTRTRCWKDYVNLRLEAIRAEYQKMPAFHHEEEKHNLEMLKKKGKEIFHRLHLSKAKMAHRMEILRGMYEELNEMCHKPDVELLQAFGDILHRSESVLLHMPQPLNPELSAGPITGLRDRLNQFRVHITLHHEEANNDIFLYEILRSMCIGCDHQDVPYFTATPRSFLAWGVQTFTSGKYYWEVHVGDSWNWAFGVCNMYRKEKNQNEKIDGKAGLFLLGCVKNDIQCSLFTTSPLMLQYIPKPTSRVGLFLDCEAKTVSFVDVNQSSLIYTIPNCSFSPPLRPIFCCIHF
modifications: lentiviral expression
notes: as for B1
As for B2, the “Percent Infected R1” value is 65.7% and the “Z score R1” value is −0.291.

B3: TRIM50: human RING type E3 ligase expressed from lentiviral vector (protein, UniProt Q86XT4 1-487, looked up)
E3 ubiquitin-protein ligase …: MAWQVSLPELEDRLQCPICLEVFKEPLMLQCGHSYCKGCLVSLSCHLDAELRCPVCRQAVDGSSSLPNVSLARVIEALRLPGDPEPKVCVHHRNPLSLFCEKDQELICGLCGLLGSHQHHPVTPVSTVYSRMKEELAALISELKQEQKKVDELIAKLVNNRTRIVNESDVFSWVIRREFQELHHLVDEEKARCLEGIGGHTRGLVASLDMQLEQAQGTRERLAQAECVLEQFGNEDHHKFIRKFHSMASRAEMPQARPLEGAFSPISFKPGLHQADIKLTVWKRLFRKVLPAPEPLKLDPATAHPLLELSKGNTVVQCGLLAQRRASQPERFDYSTCVLASRGFSCGRHYWEVVVGSKSDWRLGVIKGTASRKGKLNRSPEHGVWLIGLKEGRVYEAFACPRVPLPVAGHPHRIGLYLHYEQGELTFFDADRPDDLRPLYTFQADFQGKLYPILDTCWHERGSNSLPMVLPPPSGPGPLSPEQPTKL
B3: the “Percent Infected R1” value is 57.8% and the “Z score R1” value is given as −0.392.

B4: TRIM52: human RING type E3 ligase expressed from lentiviral vector (protein, UniProt Q96A61 1-297, looked up)
E3 ubiquitin-protein ligase …: MAGYATTPSPMQTLQEEAVCAICLDYFKDPVSISCGHNFCRGCVTQLWSKEDEEDQNEEEDEWEEEEDEEAVGAMDGWDGSIREVLYRGNADEELFQDQDDDELWLGDSGITNWDNVDYMWDEEEEEEEEDQDYYLGGLRPDLRIDVYREEEILEAYDEDEDEELYPDIHPPPSLPLPGQFTCPQCRKSFTRRSFRPNLQLANMVQIIRQMCPTPYRGNRSNDQGMCFKHQEALKLFCEVDKEAICVVCRESRSHKQHSVLPLEEVVQEYQEIKLETTLVGILQIEQESIHSKAYNQ
modifications: lentiviral expression
notes: as for B1
For B4, the “Percent Infected R1” value turned out to be 67.6% and the “Z score R1” value is given as −0.267.
